Columns and labels:
[1] = biological target: VEGF (vascular endothelial growth factor) (UniProt P15692); experiment: BioVeris ECL competition assay with a labeled competitor; legend: +++ = IC50 about 2 - 10 µM
[2] = biological target: TGFβ1 (transforming growth factor β1) (UniProt P01137); experiment: BioVeris ECL competition assay with a labeled competitor; legend: ++ = IC50 about 10 - 50 µM
[3] = biological target: FGF-5 (fibroblast growth factor 5) (UniProt P12034); experiment: BioVeris ECL competition assay with a labeled competitor; negative control
[4] = biological target: VEGF (vascular endothelial growth factor) (UniProt P15692); experiment: as above

VEGF (vascular endothelial growth factor), sequence (P15692 other isoform, or with tags, fused parts or gaps limits assumed): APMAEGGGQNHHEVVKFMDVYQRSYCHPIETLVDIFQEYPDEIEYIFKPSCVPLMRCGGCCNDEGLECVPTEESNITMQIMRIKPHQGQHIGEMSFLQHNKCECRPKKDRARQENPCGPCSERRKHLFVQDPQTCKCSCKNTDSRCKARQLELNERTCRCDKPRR
TGFβ1 (transforming growth factor β1), sequence (P01137 279-390 limits assumed): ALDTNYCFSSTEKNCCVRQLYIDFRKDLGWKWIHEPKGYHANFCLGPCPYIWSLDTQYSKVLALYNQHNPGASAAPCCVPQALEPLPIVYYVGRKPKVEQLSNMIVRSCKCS
FGF-5 (fibroblast growth factor 5), sequence (P12034 18-268 limits assumed): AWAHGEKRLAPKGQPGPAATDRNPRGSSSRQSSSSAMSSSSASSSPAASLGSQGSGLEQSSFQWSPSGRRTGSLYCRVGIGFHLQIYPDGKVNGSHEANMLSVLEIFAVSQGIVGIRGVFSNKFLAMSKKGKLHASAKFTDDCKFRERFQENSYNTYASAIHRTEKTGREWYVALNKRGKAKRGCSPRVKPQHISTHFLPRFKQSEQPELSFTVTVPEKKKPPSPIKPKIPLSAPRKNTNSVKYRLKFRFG

IC50 [1] [µM] | IC50 [2] [µM] | other results | Substance
2 to 10 |  |  | BBIt with the VEGF-binding peptide VegKD (KYDLYWW) in the chymotrypsin loop (designed binder)
2 to 10 |  |  | BBIt-VEGK (BBIt with the VEGF-binding peptide VegK KYYLYWW in the chymotrypsin loop) (designed binder)
2 to 10 |  |  | BBIt-VEGT (BBIt with the VEGF-binding peptide VegT TLWKSYW in the chymotrypsin loop) (designed binder)
 | 10 to 50 |  | PEN3-Q-BBIt-TGF-A40L-F50N (BBIt-A40L-F50N with the TGFβ1 binding peptide PEN3 PENINVLP) (designed binder)
 | 10 to 50 |  | WTQ-BBIt-Q-TGF (BBIt-A13I-L29P-F50T-V52A with the TGFβ1 binding peptide WTQ WTQHIHN) (designed binder)
 |  | IC50 [3]: > 250 µM; IC50 [4]: > 250 µM | sBBI (wild-type soybean Bowman-Birk Inhibitor) (from UniProt P01055 40-110)
